According to the nanobody polyreactivity screen of Harvey et al. (2022):

Assay: yeast display, Sf9 membrane polyspecificity reagent, FACS + sequencing; frameworks hold sequencing errors
How it was run: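 Galactose-induced (36–48 hours) yeast carrying a synthetic nanobody display library were exposed to 10% biotinylated, detergent-solubilized Sf9 membrane reagent at 4 °C for 1 hour. FACS followed streptavidin microbead enrichment, using low and high (top ~1%) gates for expression (anti-HA) and reagent binding (streptavidin). Colony PCR, MiSeq 2 × 250 sequencing and CDR-length filtering followed. Labels for polyreactivity reflect the gate of origin.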

Row | Sequence | polyreactivity (PSR sort gate)
1 | QVQLVESGGGLVQAGGSLRLSCAASGSIFYTNAMGWYRQAPGKERELVAAISISGSTYYADSVKGRFTISRDNAKNTVYLQMNSLKPEDTAVYYCAAGPGYVRYPRSGVWYVTLYDYWGQGTQVTVSS | high polyreactivity
2 | QVQLVESGGGLVQAGGSLRLSCAASGFTFDQYTMGWYRQAPGKERELVAAISSSGGSTYYADSVKGRFTISRDNAKNTVYLQMNSLKPEDTAVYYCAARFLLTQRVSHDYRGQGTQVTVSS | low polyreactivity
3 | QVQLVESGGGLVQAGGSLRLSCAASGITFPRYAMGWYRLAPGKERELVATITRSGGGTYYADSVKGRFTISRDNAKNTVYLQMKSLKPEDTAVYYCAAGALQRGVYGYGYWGQGTEVTVSS | high polyreactivity
4 | QVQIVESGGGLVQAGGSLRLSCAASGSIFSGYVMGWYRQAPGKERELVAAITWSGGRTYYADSVKGRFTISRDNAKNTVYLQMNSLKPEDTAVYYCAKRKIKSSGYYYWGQGTQVTVSS | high polyreactivity
5 | QVQLVESGGGVVQAGGSLRLSCAASGFIFSVIVMGWYRQAPGKERELVASIPSGGSPYYADSVKGRFTISRDNAKNTVYLQMNSLKPEDTAVYYCAAEFVRSVEHHPGFDYWGQGTQVTVSS | low polyreactivity
6 | QVQLVESGGGLVQAGGSLRLSCAASGSIFRSYAMGWYRPAPGKERELVAAISSGGRTKYADSVKGRFTISRDNAKNTVYLQMNSLKPEDTAVYYCAARAYYARFLMGYWGQGTQVTVSS | high polyreactivity
7 | QVQLVESGGGLVQAGGSLRLSCAASGLFARNAMGWYRQAPGKERELVAAINRSGGSTYYADSVKGRFTISRDNAKNTVYLQMNSLKPEDTAVYYCNKAFTHTKYLSPIAYEYGYWGQGTQVTVSS | low polyreactivity
8 | QVHLVESGGGLVQAGGSLRLICAASGSIFRRYAMGWYRQAPGKERELVASISSRGTRTYYADSVTWRFTISRDNAKNTVYLQMNSLKPEDTAVYYCAASYYTPYDYLGQGTQVTVSS | high polyreactivity
9 | QVQLVESRGGLVQAGGSLRLSSAASGFTFRYYLMGWYRQAPRKERELVAAITWSGGTTNYADSVKGRFTISRDNAKNSVYLQMNSLKPEDTAVYYCNAARSRGANRVPPYRLYYWGQGTQVTVSS | low polyreactivity
10 | QVQLVESGGGLGQAGGSLRLSSAASGSIFWFYAMGWYRQAPGKERELVAAITSSGGTDYADSVKGRFSISRDNAKNTVYLQMNSLKPEDSAVYYCAADRIGGPGSYLYDYWGQGTQVTVSS | low polyreactivity
11 | QVQLGESGGGLVHAGGSLRLSCAASGFIFGYYAMGWYRQAPGKERELVAAISQSTGSTYYADSVKGRFTISRDTAKNTVYLQMNSLKPEATAVYYCNAEGPEFTTWGYVYWAWGYGYWGQGTQVTVSS | low polyreactivity
12 | QVQLVESGGGLVQAGGSLRLSCAASGRTFSGNAMGWYRQAPGKERELVAAINWRGGRTYYADSVKGRFTISRDNAKNTVYLQMNSLKPEDTAVYYCAVSAYKGYDYWGQGTQVTVSS | high polyreactivity
13 | QVQLVESGGGLVQAGGSLRLSCAASGSIFYWYAMGWYRPAPGKERELVAAISYSGGSTYADSVKGRFTISRDNAKNTVYLQMNSLKPEDTAVYYCAVGYYRFGRFLGYYWGQGTQVTVSS | high polyreactivity
14 | QVQLVESGGGLVQAGGSLRLSCAASGSIFILYAMGWYRQAPGKERELVAAISSTGTTYYADSVKGRFTISRDNAKNTVYLQMNSLKPEDSAVYYCAADIYPDWIYLLYGYWGQGTQVTVSS | low polyreactivity
15 | QVHRVESGGGLVQAGGSLRLSCAASGIIFARYAMGWYRPAPGKERELVAAITRRAVSTYYADSVKGRFTITRDNAKNSVYLQLISLKPEDTAVYYCAADRASYFTYAYGYWGQGTQVTVSS | high polyreactivity
16 | QVQLQESGGGLVQAGGSLRLSCAASGTLSPLPAMGWYRQAPGKEREFVPGIDTGAITNYADSLKGRFTISRDNAKYTVYLQMNSLKPEDTAVYYCAVFPAAYLYYERYDTYWGQGTQVTVSS | low polyreactivity
17 | QVQLVESGGGIVQAGGSLRLRCAASGSIFRFNAMGWYRQAPGKERDLVAAISSSGSSTYYADSVKGRFTISRDNSKNTVYLQMNSLKPEDTAVYYSAARNSYGNWRYYYWGQGTQVTVSS | high polyreactivity
18 | QVQLVESGGGLVQAGGSLRLSCAASGYTFYPYAMGWYRQAPGKERELVAAITTSGGSTYYADSVKGRFTISRDNAKNTVYLQMNSLKPEDTAVYYCARDSLQVFYPYASDDYWGQGTQVTVSS | low polyreactivity
19 | QVQLVESGGGLVQAGGSLRLSCAASGRTFYTNAMGWYRQAPGKERELVAAITRGGSTYYADSVKGRFTIPRDNAKNTVYLQMYSLKPEDTAVYYCAAAYASSWRQRVTSEKGYYWGQGTQVTVSS | high polyreactivity
20 | QVQLVESGGALVQAGGSLRLSCAASGSIFSEYAMGWYRQAPGKERELVAAISRSGGTTYYADSVKGRFSISRDNAKNTVYLQMNSLKPEDTAVYYCAARYFRGSYPMGYWGQGTQVTVSS | high polyreactivity
21 | QVQLVESGGGLVQAGGSLRLSCAASGRTFGYYAMGWYRQAPGKERELVAAISKSGGRTYYADSVKGRFTISRDNAKNTVYLQMNSLKPEDTAVYYCAADGGAIVPYYENYYWGQGTQVTVSS | high polyreactivity
22 | NVQLVESGGGLVQAGGSLRLSCAASGSTFDYYDMGWYRQAPWKERELVATITSGGSTNYADSVKGRFTITRDNAKNTVYLLMHSLKPEDTAVYYCDARIRSVVPFDMDYWGQGTQVTVSW | low polyreactivity

Row | Sequence | polyreactivity (PSR sort gate)
23 | QVQLVESGGGLVQAGGSLRLSCAASGSIYGLNAMGWYRQAPGKESELVAAITWSGGSSTYYADSVKGRFTISRDNAKNTVYLQMNSLKPVDTAVYYCAAGRVFIPYYFRFYYWGQGTQVSVSS | high polyreactivity
24 | QVQLVESGGGLVQAGGSLRLSCAASGITFRTNTMGWSRQAPGKERELVAAITWDGGSTYYADSVKGRFTISRDNAKNTVYLQMNSLKPEDTAVYYCAARLSYLYGLYPYYYWGQGTQVTVSS | high polyreactivity
25 | QVQLVESGGGLVQAGGSLRLSCAASGSIFWPYAMGWYRQAPGKEREFVATISSSGSRTHYADSVKGRFTISRDNAKNTVSLQMNSLKPEDTAVYYCNADNPYSDGADSLGNYWGQGTQVTVSS | low polyreactivity
26 | QVQLVESGGGLVQAGGSLRLSCAASGIILYYYAMGWYRQAPGKERELVAAINWSGGSTSYADSVKGRFTISRDNAKNTVYLQMNSLKPEDTAVYYCAARLGSWHYQVWNYKYEYWGQGTQVTVSS | high polyreactivity
27 | QVQLVESGGGLVQAGGSLRLSCAASGFIFSHYAMGWYRQAPGKERELVAAIRSGGTTNYADSVKGRFTISRDNAKHTVYLQMNSLKPEDTAVYYCAASSRRSWTYDYWGQGTQVTVSS | high polyreactivity
28 | QVQLVESGGGLVQAGGSLRLSCAASGSTLWFNAMGLYRPAPGKERELVAAINWSGGSTYYADSVKGRFTISRDNAKNTVYLQMNSLKPEDTAVYYCAAVYQYVHYVWYDYWGQGTQVTVSS | low polyreactivity
29 | QVQLVESGGGLVQAGGSLRLSCAASGRTFYWYTMGWYRQAPGKERELVAAISTRGVRTYYADSVKGRFTISRDNAKNTVYLQMNSLKPEDTAVYYGNDEYNPPYYTSHDDSDYWGQGTHVTVSS | low polyreactivity
30 | QVQLVESGGGLVQAGGSLRLSCAASGNIFESYGMGWYRQAPGKERELVATINTSSGSTYYADSVKGRFTISRDNAKNTVYLQMNSLKPEDTAVSSCAGEWYPYAWGYGYWGQGTQVTVSS | low polyreactivity
31 | QVQLVESGGGLVQAGGSLRLSCAASGSIFRYYVMGWYRQAPGKERELVAAISWSGGTTYYADSVKGRFTISRDNAKNTVYLQMNSLKPEDTAVYYCAAKGPLGYYHATDYHDYWGQGTQVTVSS | high polyreactivity
32 | QVQLVESGGGLVQAGGSLRLSCAASGSIFGLYAMGWYRPAPGKERELVAAISRTGGSTYYADSVKGRFTLSRDNAKNTVYFQMHSLKPEETAVYYCAAKYQYTQYDYWGQGTQVTVSS | high polyreactivity
33 | QVQLVESGGGIDQAGGSLRLSCAASGSTFPRYAMGWYRQAPGKERELVAAISRSGGSTYYADSVKWRFTISRDNAKNTVDLQMNCLKPEDTAVYYCAGRYERGSYKYDYWGQGTEVTVSS | high polyreactivity
34 | QVQLVESGGGLVQEGGSLRLSCAATGLTFVYYEMGWYRQAPGKERELVADITYIGTSTYYADSVKGRFTISLDNAKNTVYLQMNSLKPEDTEVYYCAAPFPIRSGESWRTDLGYDYWGQGTQVTVSS | low polyreactivity
35 | QVQLVESGGGLVQAGGSLRLSCAASGSTFAVYAMGWYRQEPGKERELVAVISRGANTNYADSVKGRFTISRDNAKNTVYLQMNSLIPEDTAVYYCAAPSFFTHRGRFDYWGQGTQVTVSS | low polyreactivity
36 | QVQLVESGGGLVQAGGSLRLSCAASGITFRRNAMGWYRQAPGKERELVAGITRGGTTKYADSVKGRFTISRDNAKNTVYLQMNSLKPEDTAVYYCNAVTRRHKYYYWGQGTQVTVSS | high polyreactivity
37 | QVQLVESGGGLVQAGGSLRLSCAASGIIFYYYAMGWYRQAPGKERELVAAISTSGGRTYYADSVKGRFTISRDNAKNTVYLQMNSLKPEDTAVYYCAKDFWYVTGGWSSGMDYWGQGTQVTVSS | low polyreactivity
38 | QVQLVESGGGLVQAGGSLRLSCAASGRTFVYNAMGWYRQAPGKERELVAAITRNGGSTYYADSVKGRFTISRDNAKNTVYLQMNSLKPEDTAVYYCNRDVRYVGRSGFDYWGQGTQVTVSS | high polyreactivity
39 | QVQLVESGGGLVQAGGSLRLSCAASGRTMGYNTMGWYRQAPGKERELVARISYGGSTYYAESVKGRFTISRDNAKNTVYLQMNSLIPEDTAVYYCAAEARSYRYPYNYWGQGTQVTVSS | high polyreactivity
40 | QVQLVESGGGLVQAGGSLRLSCAASGSTFYRNSMGWYRQAPGKEREFVAAISFRGGGTYADSVKGRFTISRDNAKNTVYLQMNSLKPEDSAVYYCAADHQSYRRRYEYWGQGTQVTVSS | low polyreactivity
41 | QVQLQESGGGLVQACGSLRLSCAASGYIFSHQYMGWYRQAPGKERELVASISPGATTNYADSVKGRFTISRDNAKNTVYLQMNSLKPEDTAVYYYAVQTPDVIRHFYWGQGTQVTVSS | high polyreactivity
42 | QVQLVESGGGLVQAGGSLRLSCAASGSTFRYNAMGWYRQAPGKERELVAGISYRGGTTYYADSVKGRFTISRDNAKNTVYLQMNSLKPEDTAVYYCAAAASSPGGWFYYWGQGTQVTVSS | high polyreactivity
43 | QVQLVESGGGLVQAGGSLSLSCAATGRTFVKNAMGWYRQAPGKERELVASISRSGGSTYYADSVKGRFTISRDTAKNTVYLQMNSLKTEDTAVYYCNAAVYGGYSRSRYGYWGQGTQVTVSS | high polyreactivity
